In publication PMC4175335, “Thiosulfate Transfer Mediated by DsrE/TusA Homologs from Acidothermophilic Sulfur-oxidizing Archaeon Metallosphaera cuprina*” (The Journal of Biological Chemistry, 2014):

B2: DsrE3A (Mcup_0681) of Metallosphaera cuprina Ar-4, N-terminally His-tagged (natural protein, UniProt F4G1H3 1-133, looked up)
chain: MAQTQTEQAQEEQKKKILIVVTHGPEDLDRTYAPLFMASISASMEYETSVFFMIKGPLLLSKKWQEDERKKGGNPFIHFFDMAKDNNVKMYVCVQSLKDMCHMNESDVVDGIELVGGSTLIDLTLDADRTLFF
notes: DsrE3A, locus Mcup_0681, Metallosphaera cuprina Ar-4; gene amplified from genomic DNA into pET15b; theoretical mass with His tag 17,697 Da; Homotrimer by gel filtration

What was measured:
[1] = target: DsrE3A-C93S with His-tag (Metallosphaera cuprina Ar-4); experiment: SEC; oligomerization analysis, data not shown; proteins incubated with or without 25 μM TCEP at room temperature for 1 h; HiLoad 16/60 Superdex 75; 50 mM Tris-HCl (pH 7.5), 150 mM KCl; 0.5 ml/min
[2] = target: DsrE3A-C93S/C101S with His-tag (Metallosphaera cuprina Ar-4); experiment: as above
[3] = target: DsrE3A-C101S with His-tag (Metallosphaera cuprina Ar-4); experiment: as above
[4] = target: the molecule itself; experiment: as above
[5] = target: B2; experiment: SPR; Biacore 3000, CM5 chip, 25 °C; DsrE3A covalently immobilised (about 1500 RU); TusA as analyte in PBST (PBS, 0.005% Tween 20, pH 7.4), 30 μl/min, 2 min injection, 8 min dissociation; conditions: both partners purified

Q: “DsrE3A-C93S with His-tag (natural protein)” was tested. Which stoichiometry N [1] did it give?
A: 3

Q: “DsrE3A-C93S/C101S with His-tag (natural protein)” was tested. Which stoichiometry N [2] did it give?
A: 3

Q: How did the stoichiometry N [3] turn out when “DsrE3A-C101S with His-tag (natural protein)” was run?
A: 3

B1: TusA (Mcup_0683) of Metallosphaera cuprina Ar-4, N-terminally His-tagged (natural protein, UniProt F4G1H5 1-80, looked up)
chain: MAQDVKITKTLDVKGMYCPGPVMETAKAIKQINVGEVLEVLATDPAAKPDIEAWARRTGNQILDIQQQGGVTRILVKRAK
notes: TusA, locus Mcup_0683, Metallosphaera cuprina Ar-4; gene amplified from genomic DNA into pET15b; theoretical mass with His tag 10,895 Da; Occurs as monomers and dimers
Q: B1 was tested. Which “stoichiometry N” value [4] did it give?
A: 2

Q: And the Kd [5]?
A: 0.1 nM

Q: Which “stoichiometry N” value [4] does the source give for B2 here?
A: 3
